Reference: patent US20200277392A1 (Hoffmann-La Roche, published 2020)

How the values were obtained:
Test in all cases: SPR ProteOn XPR36, biotinylated antigen captured on NLC chip, purified Fab as analyte, 1:1 Langmuir
[1] = target: T1, GST huTnC fn5 mu A124 BC hu fn6 B (human fn5 and fn6, murine A124 BC)
T1 chain: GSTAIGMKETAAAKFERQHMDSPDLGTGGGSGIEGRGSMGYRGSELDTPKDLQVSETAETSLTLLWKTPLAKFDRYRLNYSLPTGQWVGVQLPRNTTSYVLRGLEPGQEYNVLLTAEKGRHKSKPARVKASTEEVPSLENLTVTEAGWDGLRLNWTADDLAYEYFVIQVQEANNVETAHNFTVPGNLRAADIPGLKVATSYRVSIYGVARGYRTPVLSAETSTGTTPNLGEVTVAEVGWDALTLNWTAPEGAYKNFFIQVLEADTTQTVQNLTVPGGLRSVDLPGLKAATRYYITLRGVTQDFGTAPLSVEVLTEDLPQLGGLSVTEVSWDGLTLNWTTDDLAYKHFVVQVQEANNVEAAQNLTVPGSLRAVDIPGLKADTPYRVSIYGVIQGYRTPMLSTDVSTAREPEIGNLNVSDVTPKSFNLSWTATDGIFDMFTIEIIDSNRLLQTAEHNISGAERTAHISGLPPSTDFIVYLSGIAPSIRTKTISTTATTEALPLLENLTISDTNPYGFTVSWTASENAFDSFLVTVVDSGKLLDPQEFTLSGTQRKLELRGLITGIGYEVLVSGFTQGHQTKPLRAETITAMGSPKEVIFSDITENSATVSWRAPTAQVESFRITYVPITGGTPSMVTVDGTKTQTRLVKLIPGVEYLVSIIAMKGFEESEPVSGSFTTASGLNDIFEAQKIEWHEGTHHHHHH
Experimental: (§1) Immobilization of antigens (ligand): Recombinant antigens were diluted with PBST (10 mM phosphate, 150 mM sodium chloride pH 7.4, 0.005% Tween 20) to 10 μg/ml, then injected at 30 μl/minute in vertical orientation. Injection of analytes: For ‘one-shot kinetics’ measurements, injection direction was changed to horizontal orientation, two-fold dilution series of purified Fab were injected simultaneously along separate channels 1-5, with association times of 200 s, and dissociation times of 240 s, respectively. Buffer (PBST) was injected along the sixth channel to provide an “in-line” blank for referencing. Association rate constants (kₒₙ) and dissociation rate constants (koff) were calculated using a simple one-to-one Langmuir binding model in ProteOn Manager v3.1 software by simultaneously fitting the association and dissociation sensorgrams. The equilibrium dissociation constant (KD) was calculated as the ratio koff/kₒₙ.

[2] = target: T2, huTnC A1 B (human, biotinylated at the C-terminal Avi-tag)
T2 chain: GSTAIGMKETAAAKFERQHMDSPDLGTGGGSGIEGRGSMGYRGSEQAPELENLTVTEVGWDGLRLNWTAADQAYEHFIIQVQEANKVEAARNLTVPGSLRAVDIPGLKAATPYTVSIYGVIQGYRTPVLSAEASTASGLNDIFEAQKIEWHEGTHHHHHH
Experimental: as §1

[3] = target: T3, GST huTnC fn5 A1234 fn6 B (human, biotinylated at the C-terminal Avi-tag)
T3 chain: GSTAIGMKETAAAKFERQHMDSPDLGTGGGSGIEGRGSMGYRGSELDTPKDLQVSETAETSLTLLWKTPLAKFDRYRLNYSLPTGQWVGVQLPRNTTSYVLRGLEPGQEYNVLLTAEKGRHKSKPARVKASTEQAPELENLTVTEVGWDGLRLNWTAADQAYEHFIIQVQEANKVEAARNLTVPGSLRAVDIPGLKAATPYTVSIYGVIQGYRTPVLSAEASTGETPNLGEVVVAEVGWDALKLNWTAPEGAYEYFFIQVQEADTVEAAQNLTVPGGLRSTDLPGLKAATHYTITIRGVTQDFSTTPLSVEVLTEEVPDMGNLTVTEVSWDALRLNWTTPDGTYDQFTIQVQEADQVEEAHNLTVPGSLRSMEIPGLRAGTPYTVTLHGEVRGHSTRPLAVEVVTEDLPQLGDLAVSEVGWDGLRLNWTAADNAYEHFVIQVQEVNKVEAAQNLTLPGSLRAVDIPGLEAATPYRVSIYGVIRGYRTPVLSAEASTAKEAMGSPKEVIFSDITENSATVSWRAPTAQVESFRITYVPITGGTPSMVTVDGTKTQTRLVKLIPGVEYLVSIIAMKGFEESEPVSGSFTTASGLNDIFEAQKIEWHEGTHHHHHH
Experimental: as §1

[4] = target: T4, GST huTnC fn5 A1234 BC fn6 B (human, UniProt P24821 984-1798, biotinylated at the C-terminal Avi-tag)
T4 construct: also called Human GST-fused TnC fn5 A1234 BC fn6
T4 sequence: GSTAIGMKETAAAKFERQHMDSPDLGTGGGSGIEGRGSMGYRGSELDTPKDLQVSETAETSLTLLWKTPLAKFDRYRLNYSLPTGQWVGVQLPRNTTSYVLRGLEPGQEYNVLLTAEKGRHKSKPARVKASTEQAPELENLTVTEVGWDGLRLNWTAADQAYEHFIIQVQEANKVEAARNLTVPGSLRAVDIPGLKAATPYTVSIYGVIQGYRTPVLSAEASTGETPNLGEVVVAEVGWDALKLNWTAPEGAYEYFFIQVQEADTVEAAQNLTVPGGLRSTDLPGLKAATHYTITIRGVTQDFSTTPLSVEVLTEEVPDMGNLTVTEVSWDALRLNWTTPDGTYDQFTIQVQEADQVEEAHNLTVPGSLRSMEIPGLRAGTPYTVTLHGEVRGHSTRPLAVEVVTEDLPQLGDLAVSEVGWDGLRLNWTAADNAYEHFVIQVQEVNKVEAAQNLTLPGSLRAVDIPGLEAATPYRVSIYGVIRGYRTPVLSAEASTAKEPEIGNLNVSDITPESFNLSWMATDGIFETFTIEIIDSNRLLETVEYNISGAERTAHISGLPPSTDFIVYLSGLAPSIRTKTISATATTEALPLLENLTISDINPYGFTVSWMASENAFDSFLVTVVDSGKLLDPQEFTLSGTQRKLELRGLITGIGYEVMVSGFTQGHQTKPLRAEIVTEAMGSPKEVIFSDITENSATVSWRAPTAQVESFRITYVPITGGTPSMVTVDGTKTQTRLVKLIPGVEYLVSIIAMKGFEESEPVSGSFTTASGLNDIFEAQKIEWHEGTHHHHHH
Experimental: as §1

[5] = target: T5, huTnC A4 B (human, biotinylated at the C-terminal Avi-tag)
T5 chain: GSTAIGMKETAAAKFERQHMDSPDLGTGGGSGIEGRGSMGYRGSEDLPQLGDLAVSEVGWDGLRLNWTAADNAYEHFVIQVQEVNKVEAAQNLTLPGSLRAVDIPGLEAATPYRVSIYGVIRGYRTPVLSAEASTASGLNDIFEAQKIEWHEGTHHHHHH
Experimental: as §1

B1: anti-TnC clone 18D4, purified Fab (Fab, V domains shown)
VH: QVQLVQSGAEVKKPGSSVKVSCKASGGTFSSYAISWVRQAPGQGLEWMGGIIPIFGTANYAQKFQGRVTITADKSTSTAYMELSSLRSEDTAVYYCAKGNFYGGLDYWGQGTTVTVSS
VL: DIQMTQSPSTLSASVGDRVTITCRASQSISSWLAWYQQKPGKAPKLLIYDASSLESGVPSRFSGSGSGTEFTLTISSLQPDDFATYYCQQNKKFPSGTFGQGTKVEIK
Kd [1]: 11.2 nM | Kd [2]: 5.6 nM | Kd [3]: 5 nM | Kd [4]: 4 nM | Kd [5]: 2 nM
